From publication PMC10593751

Molecular target: human IgG1 (human)
Assay: ELISA; immobilized human IgG (hIgG1 or hIgG2) used to pull down CD64; n = 3

Kd	Substance
0.0589 nM	wild-type CD64 (Fc-gamma receptor 1) (from UniProt P12314 16-374)
0.0536 nM	CD64 engineered at the N-terminus with the CKAAKNK (CK) tissue homing peptide (receptor)
